What follows are sequences tested on Escherichia coli TOP10 (assay: shrunken log2 fold change of peptide-encoding DNA abundance (4.5 h post-induction vs induction); higher = less antimicrobial activity (less host growth inhibition)). Conditions: time post-induction: 4.5 h; library: site-saturation at positions 5, 18, 19, 20.
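Further: peptides expressed intracellularly from a pBAD plasmid library in pooled LB shake-flask culture, induced with 0.3% L-arabinose, DNA abundance read by NGS, three biological replicates, DESeq2 with apeglm shrinkage.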

Sequence | shrunken log2 fold change
RRIRLRPPRLPRPRPRPKMSPRP | -0.0245
RRIRHRPPRLPRPRPRPFGRPRP | -0.0135
RRIRQRPPRLPRPRPRPCWCPRP | -0.0854
RRIRARPPRLPRPRPRPGFIPRP | -0.339
RRIRFRPPRLPRPRPRPGSEPRP | -0.0634
RRIRQRPPRLPRPRPRPLEFPRP | 0.052
RRIRGRPPRLPRPRPRPHMTPRP | 1.45
RRIRGRPPRLPRPRPRPYWKPRP | -0.0176
RRIRIRPPRLPRPRPRPVHRPRP | -0.194
RRIRWRPPRLPRPRPRPEGFPRP | 0.192
RRIRVRPPRLPRPRPRPLSGPRP | 0.179
RRIRPRPPRLPRPRPRPQQSPRP | -0.236
RRIRPRPPRLPRPRPRPHHEPRP | -0.066
RRIRIRPPRLPRPRPRPLHCPRP | -1.13
RRIRGRPPRLPRPRPRPESMPRP | 1.19
RRIRRRPPRLPRPRPRPVENPRP | 0.0788
RRIRNRPPRLPRPRPRPHKWPRP | -0.285
RRIRQRPPRLPRPRPRPQDCPRP | -0.186
RRIRLRPPRLPRPRPRPLKIPRP | -0.221
RRIRVRPPRLPRPRPRPMTAPRP | -0.12
RRIRHRPPRLPRPRPRPFPNPRP | -0.0913
RRIRYRPPRLPRPRPRPLYKPRP | -0.229
RRIRPRPPRLPRPRPRPQGSPRP | 0.0552
RRIRSRPPRLPRPRPRPIYIPRP | -0.776
RRIRRRPPRLPRPRPRPCFRPRP | -0.00559

Sequence | shrunken log2 fold change
RRIRGRPPRLPRPRPRPQPCPRP | 0.466
RRIRRRPPRLPRPRPRPYIGPRP | -0.399
RRIRQRPPRLPRPRPRPGADPRP | 0.47
RRIRERPPRLPRPRPRPADVPRP | 0.00489
RRIRCRPPRLPRPRPRPVDRPRP | 0.0626
RRIRWRPPRLPRPRPRPNPHPRP | -0.0669
RRIRYRPPRLPRPRPRPNVYPRP | -1.2
RRIRDRPPRLPRPRPRPSDYPRP | -0.566
RRIRNRPPRLPRPRPRPPCPPRP | 0.309
RRIRIRPPRLPRPRPRPPHVPRP | -0.265
RRIRMRPPRLPRPRPRPANTPRP | -0.0215
RRIRMRPPRLPRPRPRPKCAPRP | 2.89
RRIRWRPPRLPRPRPRPFEGPRP | -0.0062
RRIRFRPPRLPRPRPRPKRWPRP | 0.0556
RRIRPRPPRLPRPRPRPNKKPRP | -0.238
RRIRLRPPRLPRPRPRPVWQPRP | -0.096
RRIRTRPPRLPRPRPRPAQLPRP | -0.216
RRIRERPPRLPRPRPRPGWGPRP | 0.521
RRIRKRPPRLPRPRPRPHYQPRP | -0.101
RRIRNRPPRLPRPRPRPKCQPRP | 0.0753
RRIRGRPPRLPRPRPRPIFPPRP | 0.553
RRIRCRPPRLPRPRPRPVRAPRP | 0.486
RRIRDRPPRLPRPRPRPWAEPRP | 0.302
RRIRLRPPRLPRPRPRPSTRPRP | 0.174
RRIRIRPPRLPRPRPRPADSPRP | -0.325

Sequence | shrunken log2 fold change
RRIRYRPPRLPRPRPRPHHFPRP | -0.288
RRIRPRPPRLPRPRPRPFWPPRP | 0.199
RRIRKRPPRLPRPRPRPRCKPRP | 0.00437
RRIRKRPPRLPRPRPRPAPMPRP | 0.769
RRIRDRPPRLPRPRPRPMLLPRP | 0.307
RRIRYRPPRLPRPRPRPKMDPRP | 0.0399
RRIRKRPPRLPRPRPRPGKHPRP | 0.258
RRIRMRPPRLPRPRPRPIRRPRP | -0.168
RRIRVRPPRLPRPRPRPEYDPRP | -0.0844
RRIRPRPPRLPRPRPRPPNFPRP | 0.0501
RRIRDRPPRLPRPRPRPYQRPRP | 0.058
RRIRFRPPRLPRPRPRPAWCPRP | 0.205
RRIRPRPPRLPRPRPRPKMGPRP | -0.0348
RRIRGRPPRLPRPRPRPNQCPRP | 0.0163
RRIRVRPPRLPRPRPRPTCCPRP | 0.095
RRIRGRPPRLPRPRPRPKVPPRP | 0.447
RRIRLRPPRLPRPRPRPFLRPRP | -0.429
RRIRVRPPRLPRPRPRPLIEPRP | 0.103
RRIRNRPPRLPRPRPRPKIAPRP | 0.0241
RRIRWRPPRLPRPRPRPGTQPRP | 0.216
RRIRLRPPRLPRPRPRPRQLPRP | 0.153
RRIRERPPRLPRPRPRPYHWPRP | -0.0488
RRIRSRPPRLPRPRPRPCLFPRP | -0.193
RRIRGRPPRLPRPRPRPNFRPRP | -0.00192
RRIRHRPPRLPRPRPRPPYLPRP | -0.321

Sequence | shrunken log2 fold change
RRIRYRPPRLPRPRPRPRWGPRP | 0.12
RRIRHRPPRLPRPRPRPDLNPRP | 0.015
RRIRPRPPRLPRPRPRPLAQPRP | 0.192
RRIRIRPPRLPRPRPRPQGWPRP | -0.00188
RRIRKRPPRLPRPRPRPIHDPRP | 0.00115
RRIRERPPRLPRPRPRPYPPPRP | -0.942
RRIRWRPPRLPRPRPRPVYAPRP | 0.31
RRIRQRPPRLPRPRPRPDSMPRP | -0.17
RRIRARPPRLPRPRPRPYSNPRP | -0.781
RRIRWRPPRLPRPRPRPRSQPRP | 0.434
RRIRGRPPRLPRPRPRPQNNPRP | -0.0456
RRIRPRPPRLPRPRPRPHMKPRP | 1.08
RRIRCRPPRLPRPRPRPKESPRP | 0.0858
RRIRFRPPRLPRPRPRPGIMPRP | -0.124
RRIRDRPPRLPRPRPRPAAAPRP | 1.35
RRIRCRPPRLPRPRPRPPVMPRP | 0.298
RRIRRRPPRLPRPRPRPFGSPRP | -0.0013
RRIRQRPPRLPRPRPRPCWKPRP | 0.111
RRIRERPPRLPRPRPRPWGGPRP | 0.267
RRIRFRPPRLPRPRPRPDMNPRP | -0.407
RRIRMRPPRLPRPRPRPPYEPRP | 0.0457
RRIRSRPPRLPRPRPRPSVCPRP | 0.0526
RRIRVRPPRLPRPRPRPISSPRP | -0.136
RRIRMRPPRLPRPRPRPGIEPRP | 2.2
RRIRGRPPRLPRPRPRPDVWPRP | 1.36

Sequence | shrunken log2 fold change
RRIRARPPRLPRPRPRPMCWPRP | 0.737
RRIRDRPPRLPRPRPRPWWLPRP | 0.0758
RRIRYRPPRLPRPRPRPKDCPRP | -0.494
RRIRSRPPRLPRPRPRPVVTPRP | 0.021
RRIRPRPPRLPRPRPRPNFVPRP | -0.0668
RRIRVRPPRLPRPRPRPSTTPRP | -0.0817
RRIRPRPPRLPRPRPRPGMFPRP | -0.0259
RRIRLRPPRLPRPRPRPDYKPRP | -0.354
RRIRSRPPRLPRPRPRPWCKPRP | 0.149
RRIRKRPPRLPRPRPRPSNYPRP | -0.312
RRIRFRPPRLPRPRPRPLPMPRP | 0.142
RRIRSRPPRLPRPRPRPYRHPRP | -0.542
RRIRKRPPRLPRPRPRPGCTPRP | 0.517
RRIRWRPPRLPRPRPRPHDTPRP | 0.0511
RRIRCRPPRLPRPRPRPDIRPRP | 0.121
RRIRYRPPRLPRPRPRPEVPPRP | -0.0684
RRIRKRPPRLPRPRPRPKNPPRP | 0.0739
RRIRPRPPRLPRPRPRPFGPPRP | -0.083
RRIRFRPPRLPRPRPRPDNDPRP | -0.188
RRIRGRPPRLPRPRPRPSPHPRP | 0.435
RRIRNRPPRLPRPRPRPGNEPRP | -0.223
RRIRGRPPRLPRPRPRPPSDPRP | 1.05
RRIRRRPPRLPRPRPRPYYFPRP | -0.139
RRIRRRPPRLPRPRPRPMCWPRP | 0.0358
RRIRCRPPRLPRPRPRPRSYPRP | -0.233

Sequence | shrunken log2 fold change
RRIRERPPRLPRPRPRPIIPPRP | -0.835
RRIRERPPRLPRPRPRPESDPRP | -0.0699
RRIRHRPPRLPRPRPRPAPDPRP | -0.0192
RRIRMRPPRLPRPRPRPERCPRP | 0.201
RRIRFRPPRLPRPRPRPTMAPRP | 0.185
RRIRVRPPRLPRPRPRPAYAPRP | -0.129
RRIRKRPPRLPRPRPRPKDNPRP | 0.297
RRIRIRPPRLPRPRPRPYGIPRP | -0.329
RRIRLRPPRLPRPRPRPQRHPRP | -0.0803
RRIRIRPPRLPRPRPRPADNPRP | 0.00497
RRIRRRPPRLPRPRPRPIAHPRP | -0.0355
RRIRQRPPRLPRPRPRPSGNPRP | -0.323
RRIRLRPPRLPRPRPRPNPIPRP | -0.237
RRIRTRPPRLPRPRPRPWQLPRP | -0.189
RRIRKRPPRLPRPRPRPEPGPRP | 0.608
RRIRTRPPRLPRPRPRPCSTPRP | -0.11
RRIRPRPPRLPRPRPRPPPQPRP | 0.963
RRIRWRPPRLPRPRPRPYSQPRP | -0.425
RRIRPRPPRLPRPRPRPCLSPRP | -0.143
RRIRLRPPRLPRPRPRPTVCPRP | -0.0284
RRIRMRPPRLPRPRPRPNQYPRP | -0.218
RRIRGRPPRLPRPRPRPAWEPRP | 1.01
RRIRARPPRLPRPRPRPAYWPRP | 0.393
RRIRKRPPRLPRPRPRPTWCPRP | 0.263
RRIRLRPPRLPRPRPRPGNGPRP | 0.0164

From the supplement of paper PMC9112550, “Optimization of the antimicrobial peptide Bac7 by deep mutational scanning” (BMC Biology, 2022)
